Laboratory results from US20060275811A1 (CANON, published 2006).

Molecular target: T1, hen egg-white lysozyme (hen, UniProt P00698 19-147)
T1 construct: mature; also called HEL; target substance
Assay: SPR (BIAcore X), HEL amine-coupled to CM5 chip, polypeptide at 50, 100 and 200 nM in PBS-T
Procedure: The strains are cultured at 30° C. for 16 hours in ampicillin (100 μg/ml)-selective LB medium. IPTG is added thereto at the final concentration of 1 mM, followed by additional 16-hour culture to induce protein expression. The bacterial cells collected by centrifugation are subjected to osmotic pressure treatment (the bacterial cells are mixed with 0.5 M sucrose solution and supplemented with a 5-fold volume of pure water) and disrupted by French press to obtain as soluble fractions, the proteins of interest present in the E. coli periplasms. Next, the functional polypeptide chains are purified with HEL columns (HEL is adsorbed and immobilized onto CNBr-activated Sepharose 4B (Code No. 17-0430-01 (Amersham)); the immobilization is performed according to the accompanying protocol). The binding ability between the functional polypeptides and the target substances (HEL) is evaluated by using BIAcore (registered trademark) X (SPR measurement apparatus). […] Next, the molarity of the functional polypeptide chain is adjusted to 50 nM, 100 nM and 200 nM for the first functional polypeptide chain (HyHEL10 scFv-(G4S)3-WinZipA1), the second functional polypeptide chain (D1.3 scFv-(G4S)3-WinZipB1) and a 1:1 mixture of the first and second functional polypeptide chains by using PBS-T (0.1% Tween 20) buffer. […]

T1 sequence (P00698 19-147): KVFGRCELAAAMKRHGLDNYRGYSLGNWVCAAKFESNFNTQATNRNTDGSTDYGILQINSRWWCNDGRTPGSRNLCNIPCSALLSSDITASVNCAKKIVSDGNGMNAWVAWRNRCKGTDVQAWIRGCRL

B1: HyHEL10 scFv-(G4S)3-WinZipA1 (scFv)
scFv: DIQLQESGPSLVKPSQTLSLTCSVTGDSITSDYWSWIRKFPGNRLEYMGYVSYSGSTYYNPSLKSRISITRDTSKNQYYLDLNSVTTEDTATYYCANWDGDYWGQGTLVTVSAGGGGSGGGGSGGGGSDIVLTQSPATLSVTPGNSVSLSCRASQSIGNNLHWYQQKSHESPRLLIKYASQSISGIPSRFSGSGSGTDFTLSINSVETEDFGMYFCQQSNSWPYTFGGGTKLIITAGGGGSGGGGSGGGGSTVAQLEEKVKTLRAQNYELKSRVQRLREQVAQLA
notes: Secreted from E. coli with the pelB signal of a modified pET-20b(+) vector and purified on a HEL column; also called first functional polypeptide chain; first polypeptide chain
Binder B1 has a Kd of 0.3 nM.
